B1: Synaptonemal complex central element protein 3 (Homo sapiens), A1L190 (parent)
chain: MDDADPEERNYDNMLKMLSDLNKDLEKLLEEMEKISVQATWMAYDMVVMRTNPTLAESMRRLEDAFVNCKEEMEKNWQELLHETKQRL
partner: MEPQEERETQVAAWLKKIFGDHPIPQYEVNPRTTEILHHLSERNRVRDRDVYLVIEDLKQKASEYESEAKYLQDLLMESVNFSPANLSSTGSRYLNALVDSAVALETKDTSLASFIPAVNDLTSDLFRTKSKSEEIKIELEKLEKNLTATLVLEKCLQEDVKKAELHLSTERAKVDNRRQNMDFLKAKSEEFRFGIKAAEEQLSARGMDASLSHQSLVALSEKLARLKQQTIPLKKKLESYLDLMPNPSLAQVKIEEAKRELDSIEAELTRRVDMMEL
B2: Cyclin-D1-binding protein 1 (Homo sapiens), O95273 (parent)
chain: MASATAPAAAVPTLASPLEQLRHLAEELRLLLPRVRVGEAQETTEEFNREMFWRRLNEAAVTVSREATTLTIVFSQLPLPSPQETQKFCEQVHAAIKAFIAVYYLLPKDQGITLRKLVRGATLDIVDGMAQLMEVLSVTPTQSPENNDLISYNSVWVACQQMPQIPRDNKAAALLMLTKNVDFVKDAHEEMEQAVEECDPYSGLLNDTEENNSDNHNHEDDVLGFPSNQDLYWSEDDQELIIPCLALVRASKACLKKIRMLVAENGKKDQVAQLDDIVDISDEISPSVDDLALSIYPPMCHLTVRINSAKLVSVLKKALEITKASHVTPQPEDSWIPLLINAIDHCMNRIKELTQSELEL
partner: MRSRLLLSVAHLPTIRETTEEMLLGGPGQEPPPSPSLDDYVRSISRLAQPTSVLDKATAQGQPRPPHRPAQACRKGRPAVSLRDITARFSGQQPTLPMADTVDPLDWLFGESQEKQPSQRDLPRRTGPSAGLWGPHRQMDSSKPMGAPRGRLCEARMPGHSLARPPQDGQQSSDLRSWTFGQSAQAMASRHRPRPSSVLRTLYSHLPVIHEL
B3: Isoform Long of Autophagy protein 5 (Homo sapiens), Q9H1Y0-1 (parent)
chain: MTDDKDVLRDVWFGRIPTCFTLYQDEITEREAEPYYLLLPRVSYLTLVTDKVKKHFQKVMRQEDISEIWFEYEGTPLKWHYPIGLLFDLLASSSALPWNITVHFKSFPEKDLLHCPSKDAIEAHFMSCMKEADALKHKSQVINEMQKKDHKQLWMGLQNDRFDQFWAINRKLMEYPAEENGFRYIPFRIYQTTTERPFIQKLFRPVAADGQLHTLGDLLKEVCPSAIDPEDGEKKNQVMIHGIEPMLETPLQWLSEHLSYPDNFLHISIIPQPTD
partner: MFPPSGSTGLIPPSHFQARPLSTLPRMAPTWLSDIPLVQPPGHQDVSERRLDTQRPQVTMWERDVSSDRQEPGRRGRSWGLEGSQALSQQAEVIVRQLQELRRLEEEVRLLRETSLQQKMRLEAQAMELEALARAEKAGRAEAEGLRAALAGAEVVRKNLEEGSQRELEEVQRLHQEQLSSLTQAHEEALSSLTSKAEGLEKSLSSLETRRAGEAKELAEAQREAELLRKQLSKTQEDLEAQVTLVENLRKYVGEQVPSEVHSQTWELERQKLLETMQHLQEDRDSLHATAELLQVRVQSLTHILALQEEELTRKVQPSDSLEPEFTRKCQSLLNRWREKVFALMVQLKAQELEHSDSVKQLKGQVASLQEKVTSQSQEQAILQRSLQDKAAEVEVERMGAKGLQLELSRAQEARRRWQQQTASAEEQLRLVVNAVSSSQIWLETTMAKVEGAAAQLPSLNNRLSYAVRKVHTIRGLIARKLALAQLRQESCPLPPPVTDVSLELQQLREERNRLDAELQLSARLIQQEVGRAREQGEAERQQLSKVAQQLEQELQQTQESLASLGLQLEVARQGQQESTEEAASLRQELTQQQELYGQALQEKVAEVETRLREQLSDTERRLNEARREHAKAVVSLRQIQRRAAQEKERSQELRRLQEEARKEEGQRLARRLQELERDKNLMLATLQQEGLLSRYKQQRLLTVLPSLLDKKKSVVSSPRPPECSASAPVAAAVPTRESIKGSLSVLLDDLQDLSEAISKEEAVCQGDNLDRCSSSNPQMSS
B4: pre-mRNA splicing regulator USH1G (Homo sapiens), Q495M9 (parent)
chain: MNDQYHRAARDGYLELLKEATRKELNAPDEDGMTPTLWAAYHGNLESLRLIVSRGGDPDKCDIWGNTPLHLAASNGHLHCLSFLVSFGANIWCLDNDYHTPLDMAAMKGHMECVRYLDSIAAKQSSLNPKLVGKLKDKAFREAERRIRECAKLQRRHHERMERRYRRELAERSDTLSFSSLTSSTLSRRLQHLALGSHLPYSQATLHGTARGKTKMQKKLERRKQGGEGTFKVSEDGRKSARSLSGLQLGSDVMFVRQGTYANPKEWGRAPLRDMFLSDEDSVSRATLAAEPAHSEVSTDSGHDSLFTRPGLGTMVFRRNYLSSGLHGLGREDGGLDGVGAPRGRLQSSPSLDDDSLGSANSLQDRSCGEELPWDELDLGLDEDLEPETSPLETFLASLHMEDFAALLRQEKIDLEALMLCSDLDLRSISVPLGPRKKILGAVRRRRQAMERPPALEDTEL
partner: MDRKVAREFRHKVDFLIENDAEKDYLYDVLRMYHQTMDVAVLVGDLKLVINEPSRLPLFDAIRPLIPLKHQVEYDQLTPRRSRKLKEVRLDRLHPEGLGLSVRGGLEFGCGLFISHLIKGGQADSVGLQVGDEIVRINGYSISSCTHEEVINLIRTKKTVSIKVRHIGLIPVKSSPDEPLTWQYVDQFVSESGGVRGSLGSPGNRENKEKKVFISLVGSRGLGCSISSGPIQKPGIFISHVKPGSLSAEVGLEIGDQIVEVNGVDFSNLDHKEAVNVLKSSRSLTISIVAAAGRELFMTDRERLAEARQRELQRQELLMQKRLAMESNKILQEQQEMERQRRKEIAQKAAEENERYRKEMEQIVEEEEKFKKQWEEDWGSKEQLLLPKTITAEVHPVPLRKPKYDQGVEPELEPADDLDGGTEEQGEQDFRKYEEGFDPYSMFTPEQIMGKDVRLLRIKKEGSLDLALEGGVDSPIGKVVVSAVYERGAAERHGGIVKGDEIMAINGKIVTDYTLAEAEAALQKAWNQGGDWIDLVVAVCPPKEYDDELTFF
B5: Coiled-coil domain-containing protein 92 (Homo sapiens), Q53HC0 (parent)
chain: MTSPHFSSYDEGPLDVSMAATNLENQLHSAQKNLLFLQREHASTLKGLHSEIRRLQQHCTDLTYELTVKSSEQTGDGTSKSSELKKRCEELEAQLKVKENENAELLKELEQKNAMITVLENTIKEREKKYLEELKAKSHKLTLLSSELEQRASTIAYLTSQLHAAKKKLMSSSGTSDASPSGSPVLASYKPAPPKDKLPETPRRRMKKSLSAPLHPEFEEVYRFGAESRKLLLREPVDAMPDPTPFLLARESAEVHLIKERPLVIPPIASDRSGEQHSPAREKPHKAHVGVAHRIHHATPPQAQPEVKTLAVDQVNGGKVVRKHSGTDRTV
partner: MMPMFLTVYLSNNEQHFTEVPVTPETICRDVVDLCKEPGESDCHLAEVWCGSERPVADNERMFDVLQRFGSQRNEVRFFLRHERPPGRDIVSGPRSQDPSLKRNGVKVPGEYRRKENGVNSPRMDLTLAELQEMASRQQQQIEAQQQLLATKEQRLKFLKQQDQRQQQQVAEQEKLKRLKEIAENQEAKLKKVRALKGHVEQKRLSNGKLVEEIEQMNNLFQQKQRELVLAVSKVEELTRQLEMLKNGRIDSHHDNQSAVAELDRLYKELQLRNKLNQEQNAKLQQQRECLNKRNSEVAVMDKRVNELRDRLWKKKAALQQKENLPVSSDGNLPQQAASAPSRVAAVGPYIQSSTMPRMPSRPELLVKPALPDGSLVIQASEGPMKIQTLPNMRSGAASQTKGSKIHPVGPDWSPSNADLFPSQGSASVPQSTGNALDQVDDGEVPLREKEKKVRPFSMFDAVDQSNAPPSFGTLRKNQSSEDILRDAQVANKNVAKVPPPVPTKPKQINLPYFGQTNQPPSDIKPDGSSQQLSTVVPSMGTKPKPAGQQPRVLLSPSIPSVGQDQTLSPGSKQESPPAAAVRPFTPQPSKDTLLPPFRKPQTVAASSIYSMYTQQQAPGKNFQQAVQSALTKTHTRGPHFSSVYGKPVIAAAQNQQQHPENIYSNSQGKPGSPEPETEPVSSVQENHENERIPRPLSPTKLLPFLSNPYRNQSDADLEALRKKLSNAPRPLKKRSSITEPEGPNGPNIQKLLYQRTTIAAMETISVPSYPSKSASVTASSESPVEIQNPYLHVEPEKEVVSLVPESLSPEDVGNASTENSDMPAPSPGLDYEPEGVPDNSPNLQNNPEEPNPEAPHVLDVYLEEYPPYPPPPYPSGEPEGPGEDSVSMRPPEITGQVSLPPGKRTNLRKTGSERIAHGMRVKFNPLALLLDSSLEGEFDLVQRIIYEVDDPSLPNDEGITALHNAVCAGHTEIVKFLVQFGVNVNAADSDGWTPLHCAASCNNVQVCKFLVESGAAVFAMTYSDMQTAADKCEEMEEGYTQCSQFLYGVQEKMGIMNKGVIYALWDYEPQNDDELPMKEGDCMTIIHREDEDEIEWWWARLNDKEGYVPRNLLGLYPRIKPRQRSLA
B6: Isoform 1 of Ras association domain-containing protein 2 (Homo sapiens), P50749-1 (parent)
chain: MDYSHQTSLVPCGQDKYISKNELLLHLKTYNLYYEGQNLQLRHREEEDEFIVEGLLNISWGLRRPIRLQMQDDNERIRPPPSSSSWHSGCNLGAQGTTLKPLTVPKVQISEVDAPPEGDQMPSSTDSRGLKPLQEDTPQLMRTRSDVGVRRRGNVRTPSDQRRIRRHRFSINGHFYNHKTSVFTPAYGSVTNVRINSTMTTPQVLKLLLNKFKIENSAEEFALYVVHTSGEKQKLKATDYPLIARILQGPCEQISKVFLMEKDQVEEVTYDVAQYIKFEMPVLKSFIQKLQEEEDREVKKLMRKYTVLRLMIRQRLEEIAETPATI
partner: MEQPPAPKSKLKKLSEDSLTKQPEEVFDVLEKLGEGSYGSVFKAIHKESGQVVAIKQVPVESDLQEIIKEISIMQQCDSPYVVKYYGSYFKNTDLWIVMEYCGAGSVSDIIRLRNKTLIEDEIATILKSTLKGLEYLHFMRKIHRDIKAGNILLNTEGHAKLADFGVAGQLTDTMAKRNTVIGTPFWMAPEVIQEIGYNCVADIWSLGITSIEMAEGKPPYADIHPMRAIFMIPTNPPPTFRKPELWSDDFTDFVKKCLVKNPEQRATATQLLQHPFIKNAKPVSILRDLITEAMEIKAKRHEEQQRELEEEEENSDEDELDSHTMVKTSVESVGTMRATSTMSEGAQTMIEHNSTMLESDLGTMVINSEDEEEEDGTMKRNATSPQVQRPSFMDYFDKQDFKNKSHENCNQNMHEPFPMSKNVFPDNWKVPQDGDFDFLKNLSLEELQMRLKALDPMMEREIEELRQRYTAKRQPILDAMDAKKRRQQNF
B7: Transcription factor 12 (Homo sapiens), Q99081 (parent)
chain: MNPQQQRMAAIGTDKELSDLLDFSAMFSPPVNSGKTRPTTLGSSQFSGSGIDERGGTTSWGTSGQPSPSYDSSRGFTDSPHYSDHLNDSRLGAHEGLSPTPFMNSNLMGKTSERGSFSLYSRDTGLPGCQSSLLRQDLGLGSPAQLSSSGKPGTAYYSFSATSSRRRPLHDSAALDPLQAKKVRKVPPGLPSSVYAPSPNSDDFNRESPSYPSPKPPTSMFASTFFMQDGTHNSSDLWSSSNGMSQPGFGGILGTSTSHMSQSSSYGNLHSHDRLSYPPHSVSPTDINTSLPPMSSFHRGSTSSSPYVAASHTPPINGSDSILGTRGNAAGSSQTGDALGKALASIYSPDHTSSSFPSNPSTPVGSPSPLTGTSQWPRPGGQAPSSPSYENSLHSLQSRMEDRLDRLDDAIHVLRNHAVGPSTSLPAGHSDIHSLLGPSHNAPIGSLNSNYGGSSLVASSRSASMVGTHREDSVSLNGNHSVLSSTVTTSSTDLNHKTQENYRGGLQSQSGTVVTTEIKTENKEKDENLHEPPSSDDMKSDDESSQKDIKVSSRGRTSSTNEDEDLNPEQKIEREKERRMANNARERLRVRDINEAFKELGRMCQLHLKSEKPQTKLLILHQAVAVILSLEQQVRERNLNPKAACLKRREEEKVSAVSAEPPTTLPGTHPGLSETTNPMGHM

Variants of: B1
Details: with haus1_human HAUS1, Q96CS2

Variant	effect of a mutation on the interaction
R50C	with no effect
A65G	with no effect

Variants of: B2
Details: with depp1_human DEPP1, Q9NTK1

Variant	effect of a mutation on the interaction
I277T	disrupting interaction strength

Variants of: B3
Details: with cchcr_human CCHCR1, Q8TD31

Variant	effect of a mutation on the interaction
K58M	with no effect

Variants of: B4
Details: with ush1c_human USH1C

Variant	effect of a mutation on the interaction
E393D	with no effect
L48P	with no effect
L420V	with no effect
L16V	with no effect

Variants of: B5
Details: with aspp2_human TP53BP2, Q13625

Variant	effect of a mutation on the interaction
S70C	with no effect

Variants of: B6
Details: with stk3_human STK3, Q13188

Variant	effect of a mutation on the interaction
R144H	with no effect

Variants of: B7
Details: with psa1_human PSMA1, P25786
Sequence of psa1_human PSMA1, P25786 (P25786 whole entry): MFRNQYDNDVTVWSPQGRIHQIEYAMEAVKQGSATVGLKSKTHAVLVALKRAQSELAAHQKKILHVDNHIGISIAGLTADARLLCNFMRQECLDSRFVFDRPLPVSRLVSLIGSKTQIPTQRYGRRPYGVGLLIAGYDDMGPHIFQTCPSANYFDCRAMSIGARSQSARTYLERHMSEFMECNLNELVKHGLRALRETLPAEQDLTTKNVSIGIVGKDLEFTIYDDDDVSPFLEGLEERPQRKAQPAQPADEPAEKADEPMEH

Variant	effect of a mutation on the interaction
I11M	with no effect

Variants of: B7
Details: with cdn2c_human CDKN2C

Variant	effect of a mutation on the interaction
I11M	with no effect
